# Assay results as given in patent publication US20210155676A1 (Gilead, published 2021).
# Residue numbers refer to the chain shown, from its start.
# B1: PGT121.61 hIgG1/hLambda (antibody)
# heavy: QMQLQESGPGLVKPSETLSLTCSVSGASISDSYWSWIRRSPGKGLEWIGYVHKSGDTNYNPSLKSRVHLSLDTSKNQVSLSLTGVTAADSGKYYCARTLHGRRIYGIVAFNEWFTYFYMDVWGTGTQVTVSSASTKGPSVFPLAPSSKSTSGGTAALGCLVKDYFPEPVTVSWNSGALTSGVHTFPAVLQSSGLYSLSSVVTVPSSSLGTQTYICNVNHKPSNTKVDKKVEPKSCDKTHTCPPCPAPELLAGPDVFLFPPKPKDTLMISRTPEVTCVVVDVSHEDPEVKFNWYVDGVEVHNAKTKPREEQYNSTYRVVSVLTVLHQDWLNGKEYKCKVSNKALPLPEEKTISKAKGQPREPQVYTLPPSREEMTKNQVSLTCLVKGFYPSDIAVEWESNGQPENNYKTTPPVLDSDGSFFLYSKLTVDKSRWQQGNVFSCSVLHEALHSHYTQKSLSLSPGK
# light: SDISVAPGETARISCGEKSLGSRAVQWYQHRAGQAPSLIIYNNQDRPSGIPERFSGSPDSRPGTTATLTITSVEAGDEADYYCHIWDSRVPTKWVFGGGTKLTVLGQPKAAPSVTLFPPSSEELQANKATLVCLISDFYPGAVTVAWKADSSPVKAGVETTTPSKQSNNKYAASSYLSLTPEQWKSHRSYSCQVTHEGSTVEKTVAPTECS
# B2: PGT121.42 hIgG1/hLambda (antibody)
# heavy: B1 heavy with T83S, G84S, T124K
# light: not shown
# notes: also called PTG121.42
# B3: PGT121.65 hIgG1/hLambda (antibody)
# heavy: B1 heavy with M2L, S32A, T98A
# light: B1 light
# B4: PGT121.56 hIgG1/hLambda (antibody)
# heavy: B1 heavy with N60S, H68N, T83V, G84A, V85A, T124N
# light: not shown
# B5: PGT121.64 hIgG1/hLambda (antibody)
# heavy: B1 heavy with M2L, S32A, T98A
# light: not shown
# B6: PGT121.60 hIgG1/hLambda (antibody)
# heavy: B1 heavy
# light: not shown
# B7: PGT121.61 hIgG1/hLambda (antibody)
# heavy: B1 heavy
# light: B1 light
# Molecular target: T1, Human FcRn (human, UniProt P55899 24-297; P61769 21-119)
# T1 construct: also called neonatal Fc receptor
# T1 sequence (P55899 24-297 limits assumed, chain 1 of 2): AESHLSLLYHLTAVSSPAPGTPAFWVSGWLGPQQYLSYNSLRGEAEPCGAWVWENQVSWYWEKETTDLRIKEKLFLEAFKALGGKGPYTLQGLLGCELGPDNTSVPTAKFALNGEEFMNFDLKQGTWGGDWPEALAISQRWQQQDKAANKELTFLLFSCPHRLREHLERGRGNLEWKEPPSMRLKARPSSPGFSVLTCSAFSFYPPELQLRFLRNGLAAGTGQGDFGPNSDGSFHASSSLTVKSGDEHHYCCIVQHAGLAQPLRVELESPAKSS
# T1 sequence (P61769 21-119 limits assumed, chain 2 of 2): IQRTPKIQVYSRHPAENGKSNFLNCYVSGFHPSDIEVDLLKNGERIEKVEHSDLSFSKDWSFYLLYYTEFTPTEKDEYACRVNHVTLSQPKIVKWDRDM
# Assay: ELISA, FcRn coated on plate, pH 6.0
# Procedure: (§1) The binding of antibodies to FcRn of various species at different pHs was determined. A 96-well Maxisorp plate was coated with 100 ul of 5 μg/ml FcRn. The plate was incubated overnight at 4° C., and then blocked with 4% skim milk for 2 hr at room temperature after washing 3 times with 0.05% Tween 20 washing buffer. The plate was incubated with 3 fold serial dilution of primary antibody for 1 hr at room temperature. The plate was then washed 3 times and 100 of Fab-anti-human Fab-HRP or Goat anti-human IgG-HRP secondary antibody diluted in 4% skimmed milk was added. Plates were then incubated 50 min at room temperature, washed three times, and 100 μL fresh TMB substrate was added. Plates were developed for 3 minutes on bench with gentle shaking. Plate was quenched with 100 μL 1M HCl, shaken briefly, read at A450 on a spectramax m5 plate reader.
row,Binder,EC50
1,B1,0.13 nM
2,B2,0.41 nM
3,B3,0.57 nM
4,B4,0.47 nM
5,B5,1.59 nM

# Molecular target: HIV-1 93HT593 Env (on virus) (HIV-1 isolate 93HT593)
# Assay: cell-based or functional assay
row,Binder,"neutralization IC50, HIV-1 HT593, CEM.NKr.CCR5.Luc assay"
1,B6,141 ng/mL
2,B7,343 ng/mL

# Molecular target: HIV-1 92US727 Env (on virus) (HIV-1 isolate 92US727)
# Assay: cell-based or functional assay
row,Binder,"neutralization IC50, HIV-1 US727, CEM.NKr.CCR5.Luc assay"
1,B6,7 ng/mL
2,B7,5 ng/mL

# Molecular target: HIV-1 92US712 Env (on virus) (HIV-1 isolate 92US712)
# Assay: cell-based or functional assay
row,Binder,"neutralization IC50, HIV-1 US712, CEM.NKr.CCR5.Luc assay"
1,B6,8 ng/mL
2,B7,8 ng/mL

# Molecular target: HIV-1 BaL Env (on virus) (HIV-1 strain BaL)
# Assay: cell-based or functional assay
row,Binder,"neutralization IC50, HIV-1 BaL, CEM.NKr.CCR5.Luc assay"
1,B6,7 ng/mL
2,B7,8 ng/mL

# Molecular target: HIV-1 92US657 Env (on virus) (HIV-1 isolate 92US657)
# Assay: cell-based or functional assay
row,Binder,"neutralization IC50, HIV-1 US657, CEM.NKr.CCR5.Luc assay"
1,B6,62 ng/mL
2,B7,72 ng/mL

# Molecular target: human FcγRIIIA on primary NK effector cells (human, UniProt P08637 17-254)
# Sequence (P08637 17-254): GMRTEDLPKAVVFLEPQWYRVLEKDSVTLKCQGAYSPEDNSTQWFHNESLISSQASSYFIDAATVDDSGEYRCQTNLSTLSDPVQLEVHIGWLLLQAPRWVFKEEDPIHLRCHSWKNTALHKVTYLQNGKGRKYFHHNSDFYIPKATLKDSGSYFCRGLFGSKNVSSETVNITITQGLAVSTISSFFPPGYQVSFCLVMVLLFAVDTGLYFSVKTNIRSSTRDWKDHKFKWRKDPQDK
# Assay: cell-based or functional assay
Binder,"ADCC AUC, NK donor A4813, primary CD4+ T cells infected with HT593","ADCC AUC, NK donor A4813, primary CD4+ T cells infected with US657","ADCC EC50, NK donor A4813, primary CD4+ T cells infected with HT593","ADCC EC50, NK donor A4813, primary CD4+ T cells infected with US657","ADCC Emax, NK donor A4813, primary CD4+ T cells infected with HT593","ADCC Emax, NK donor A4813, primary CD4+ T cells infected with US657"
B1,169,190,2.2 nM,1.3 nM,70%,72%
B2,191,222,4.9 nM,1.4 nM,71%,72%
B3,158,190,2.6 nM,3.2 nM,71%,75%
B4,161,219,6.3 nM,,72%,71%
B5,167,188,1.4 nM,1.6 nM,66%,70%

# Molecular target: T1, Human FcRn
# Assay: ELISA, pH 7.0/6.0 ratio relative to PGT121
# Procedure: as §1
row,Binder,Fold vs PGT121
1,B1,33 fold
2,B2,5 fold
3,B3,6 fold
4,B5,2 fold

# Molecular target: T1, Human FcRn
# Assay: ELISA, FcRn coated on plate, pH 7.0
# Procedure: as §1
row,Binder,EC50
1,B1,140 nM
2,B2,69.8 nM
3,B3,104 nM
4,B4,102 nM
5,B5,125 nM

# Molecular target: T1, Human FcRn
# Assay: ELISA, ratio of EC50 at pH 7.0 to EC50 at pH 6.0
# Procedure: as §1
row,Binder,Ratio pH 7.0/6.0
1,B1,1070
2,B2,170
3,B3,182
4,B5,79
